Tests used:
[1] = molecular target: T1, histone H3 (1-18) peptide, H3K4me2 (Upstate 12-460), P68431
T1 chain: ARTKQTARKSTGGKAPRK

[2] = molecular target: T2, histone H3 (1-18) peptide, H3K4me3 (Upstate 12-564), P68431
T2 chain: ARTKQTARKSTGGKAPRK

[3] = molecular target: T3, histone H3 (1-18) peptide, H3K4me1 (Upstate 12-563), P68431
T3 chain: ARTKQTARKSTGGKAPRK

[4] = molecular target: T4, dimethyl-K36 histone H3 peptide (STGGV2mKKPHRY-C)
T4 chain: STGGVKKPHRYC

[5] = molecular target: trimethyl-K36 histone H3 peptide
[6] = molecular target: T5, trimethyl-K9 histone H3 peptide (acetyl-ARTKQTARmeKSTGGKAPRK-biotin)
T5 chain: ARTKQTARKSTGGKAPRK

[7] = molecular target: T6, dimethyl-K9 histone H3 peptide (acetyl-ARTKQTARmeKSTGGKAPRK-biotin)
T6 chain: ARTKQTARKSTGGKAPRK

[8] = molecular target: T7, histone H3 (1-18) peptide, di-methyl on lysine 9, P68431
T7 chain: ARTKQTARKSTGGKAPRK

[9] = molecular target: T8, histone H3 (1-18) peptide, tri-methyl on lysine 9, P68431
T8 chain: ARTKQTARKSTGGKAPRK

B1: recombinant Flag-RBP2 (Retinoblastoma Binding Protein 2, JARID1A) (protein)
chain: MAGVGPGGYAAEFVPPPECPVFEPSWEEFTDPLSFIGRIRPLAEKTGICKIRPPKDWQPPFACEVKSFRFTPRVQRLNELEAMTRVRLDFLDQLAKFWELQGSTLKIPVVERKILDLYALSKIVASKGGFEMVTKEKKWSKVGSRLGYLPGKGTGSLLKSHYERILYPYELFQSGVSLMGVQMPNLDLKEKVEPEVLSTDTQTSPEPGTRMNILPKRTRRVKTQSESGDVSRNTELKKLQIFGAGPKVVGLAMGTKDKEDEVTRRRKVTNRSDAFNMQMRQRKGTLSVNFVDLYVCMFCGRGNNEDKLLLCDGCDDSYHTFCLIPPLPDVPKGDWRCPKCVAEECSKPREAFGFEQAVREYTLQSFGEMADNFKSDYFNMPVHMVPTELVEKEFWRLVSSIEEDVIVEYGADISSKDFGSGFPVKDGRRKILPEEEEYALSGWNLNNMPVLEQSVLAHINVDISGMKVPWLYVGMCFSSFCWHIEDHWSYSINYLHWGEPKTWYGVPSHAAEQLEEVMRELAPELFESQPDLLHQLVTIMNPNVLMEHGVPVYRTNQCAGEFVVTFPRAYHSGFNQGYNFAEAVNFCTADWLPIGRQCVNHYRRLRRHCVFSHEELIFKMAADPECLDVGLAAMVCKELTLMTEEETRLRESVVQMGVLMSEEEVFELVPDDERQCSACRTTCFLSALTCSCNPERLVCLYHPTDLCPCPMQKKCLRYRYPLEDLPSLLYGVKVRAQSYDTWVSRVTEALSANFNHKKDLIELRVMLEDAEDRKYPENDLFRKLRDAVKEAETCASVAQLLLSKKQKHRQSPDSGRTRTKLTVEELKAFVQQLFSLPCVISQARQVKNLLDDVEEFHERAQEAMMDETPDSSKLQMLIDMGSSLYVELPELPRLKQELQQARWLDEVRLTLSDPQQVTLDVMKKLIDSGVGLAPHHAVEKAMAELQELLTVSERWEEKAKVCLQARPRHSVASLESIVNEAKNIPAFLPNVLSLKEALQKAREWTAKVEAIQSGSNYAYLEQLESLSAKGRPIPVRLEALPQVESQVAAARAWRERTGRTFLKKNSSHTLLQVLSPRTDIGVYGSGKNRRKKVKELIEKEKEKDLDLEPLSDLEEGLEETRDTAMVVAVFKEREQKEIEAMHSLRAANLAKMTMVDRIEEVKFCICRKTASGFMLQCELCKDWFHNSCVPLPKSSSQKKGSSWQAKEVKFLCPLCMRSRRPRLETILSLLVSLQKLPVRLPEGEALQCLTERAMSWQDRARQALATDELSSALAKLSVLSQRMVEQAAREKTEKIISAELQKAAANPDLQGHLPSFQQSAFNRVVSSVSSSPRQTMDYDDEETDSDEDIRETYGYDMKDTASVKSSSSLEPNLFCDEEIPIKSEEVVTHMWTAPSFCAEHAYSSASKSCSQGSSTPRKQPRKSPLVPRSLEPPVLELSPGAKAQLEELMMVGDLLEVSLDETQHIWRILQATHPPSEDRFLHIMEDDSMEEKPLKVKGKDSSEKKRKRKLEKVEQLFGEGKQKSKELKKMDKPRKKKLKLGADKSKELNKLAKKLAKEEERKKKKEKAAAAKVELVKESTEKKREKKVLDIPSKYDWSGAEESDDENAVCAAQNCQRPCKDKVDWVQCDGGCDEWFHQVCVGVSPEMAENEDYICINCAKKQGPVSPGPAPPPSFIMSYKLPMEDLKETS
demethylation of peptide substrate, mass spectrometry [1]: 80-90% demethylation of the modified substrate
demethylation of peptide substrate, mass spectrometry [2]: 80-90% demethylation of the modified substrate
demethylation of peptide substrate, mass spectrometry [3]: failed to catalyze removal of the mel modification state

B2: recombinant Flag-JHDM1A (FBXL11) (protein)
chain: MEPEEERIRYSQRLRGTMRRRYEDDGISDDEIEGKRTFDLEEKLHTNKYNANFVTFMEGKDFNVEYIQRGGLRDPLIFKNSDGLGIKMPDPDFTVNDVKMCVGSRRMVDVMDVNTQKGIEMTMAQWTRYYETPEEEREKLYNVISLEFSHTRLENMVQRPSTVDFIDWVDNMWPRHLKESQTESTNAILEMQYPKVQKYCLMSVRGCYTDFHVDFGGTSVWYHIHQGGKVFWLIPPTAHNLELYENWLLSGKQGDIFLGDRVSDCQRIELKQGYTFVIPSGWIHAVYTPTDTLVFGGNFLHSFNIPMQLKIYNIEDRTRVPNKFRYPFYYEMCWYVLERYVYCITNRSHLTKEFQKESLSMDLELNGLESGNGDEEAVDREPRRLSSRRSVLTSPVANGVNLDYDGLGKTCRSLPSLKKTLAGDSSSDCSRGSHNGQVWDPQCAPRKDRQVHLTHFELEGLRCLVDKLESLPLHKKCVPTGIEDEDALIADVKILLEELANSDPKLALTGVPIVQWPKRDKLKFPTRPKVRVPTIPITKPHTMKPAPRLTPVRPAAASPIVSGARRRRVRCRKCKACVQGECGVCHYCRDMKKFGGPGRMKQSCVLRQCLAPRLPHSVTCSLCGEVDQNEETQDFEKKLMECCICNEIVHPGCLQMDGEGLLNEELPNCWECPKCYQEDSSEKAQKRKMEESDEEAVQAKVLRPLRSCDEPLTPPPHSPTSMLQLIHDPVSPRGMVTRSSPGAGPSDHHSASRDERFKRRQLLRLQATERTMVREKENNPSGKKELSEVEKAKIRGSYLTVTLQRPTKELHGTSIVPKLQAITASSANLRHSPRVLVQHCPARTPQRGDEEGLGGEEEEEEEEEEEDDSAEEGGAARLNGRGSWAQDGDESWMQREVWMSVFRYLSRRELCECMRVCKTWYKWCCDKRLWTKIDLSRCKAIVPQALSGIIKRQPVSLDLSWTNISKKQLTWLVNRLPGLKDLLLAGCSWSAVSALSTSSCPLLRTLDLRWAVGIKDPQIRDLLTPPADKPGQDNRSKLRNMTDFRLAGLDITDATLRLIIRHMPLLSRLDLSHCSHLTDQSSNLLTAVGSSTRYSLTELNMAGCNKLTDQTLIYLRRIANVTLIDLRGCKQITRKACEHFISDLSINSLYCLSDEKLIQKIS
demethylation of peptide substrate, mass spectrometry [4]: revealed the generation of mono- and unmethylated forms of the peptide in a JHDM1A-dependent manner
demethylation of peptide substrate, mass spectrometry [5]: we did not detect any demethylation when a trimethyl-K36 peptide was subjected to a parallel reaction (data not shown)

B3: recombinant Flag-JHDM2A (JmjC domain-containing histone demethylase 2A) (protein)
chain: MVLTLGESWPVLVGRRFLSLSAADGSDGSHDSWDVERVAEWPWLSGTIRAVSHTDVTKKDLKVCVEFDGESWRKRRWIEVYSLLRRAFLVEHNLVLAERKSPEISERIVQWPAITYKPLLDKAGLGSITSVRFLGDQQRVFLSKDLLKPIQDVNSLRLSLTDNQIVSKEFQALIVKHLDESHLLKGDKNLVGSEVKIYSLDPSTQWFSATVINGNPASKTLQVNCEEIPALKIVDPSLIHVEVVHDNLVTCGNSARIGAVKRKSSENNGTLVSKQAKSCSEASPSMCPVQSVPTTVFKEILLGCTAATPPSKDPRQQSTPQAANSPPNLGAKIPQGCHKQSLPEEISSCLNTKSEALRTKPDVCKAGLLSKSSQIGTGDLKILTEPKGSCTQPKTNTDQENRLESVPQALTGLPKECLPTKASSKAELEIANPPELQKHLEHAPSPSDVSNAPEVKAGVNSDSPNNCSGKKVEPSALACRSQNLKESSVKVDNESCCSRSNNKIQNAPSRKSVLTDPAKLKKLQQSGEAFVQDDSCVNIVAQLPKCRECRLDSLRKDKEQQKDSPVFCRFFHFRRLQFNKHGVLRVEGFLTPNKYDNEAIGLWLPLTKNVVGIDLDTAKYILANIGDHFCQMVISEKEAMSTIEPHRQVAWKRAVKGVREMCDVCDTTIFNLHWVCPRCGFGVCVDCYRMKRKNCQQGAAYKTFSWLKCVKSQIHEPENLMPTQIIPGKALYDVGDIVHSVRAKWGIKANCPCSNRQFKLFSKPASKEDLKQTSLAGEKPTLGAVLQQNPSVLEPAAVGGEAASKPAGSMKPACPASTSPLNWLADLTSGNVNKENKEKQPTMPILKNEIKCLPPLPPLSKSSTVLHTFNSTILTPVSNNNSGFLRNLLNSSTGKTENGLKNTPKILDDIFASLVQNKTTSDLSKRPQGLTIKPSILGFDTPHYWLCDNRLLCLQDPNNKSNWNVFRECWKQGQPVMVSGVHHKLNSELWKPESFRKEFGEQEVDLVNCRTNEIITGATVGDFWDGFEDVPNRLKNEKEPMVLKLKDWPPGEDFRDMMPSRFDDLMANIPLPEYTRRDGKLNLASRLPNYFVRPDLGPKMYNAYGLITPEDRKYGTTNLHLDVSDAANVMVYVGIPKGQCEQEEEVLKTIQDGDSDELTIKRFIEGKEKPGALWHIYAAKDTEKIREFLKKVSEEQGQENPADHDPIHDQSWYLDRSLRKRLHQEYGVQGWAIVQFLGDVVFIPAGAPHQVHNLYSCIKVAEDFVSPEHVKHCFWLTQEFRYLSQTHTNHEDKLQVKNVIYHAVKDAVAMLKASESSFGKP
demethylation of peptide substrate, mass spectrometry [6]: no demethylation was detected when a trimethyl-K9 peptide, that has the same sequence, was subjected to parallel analysis
demethylation of peptide substrate, mass spectrometry [7]: demethylation of a dimethyl-K9 peptide depends on the presence of JHDM2A and generated products with masses that correlate with both mono-methyl and unmethylated forms of the peptide

B4: recombinant Flag-JHDM3A (JMJD2A) (protein)
chain: MASESETLNPSARIMTFYPTMEEFRNFSRYIAYIESQGAHRAGLAKVVPPKEWKPRASYDDIDDLVIPAPIQQLVTGQSGLFTQYNIQKKAMTVREFRKIANSDKYCTPRYSEFEELERKYWKNLTFNPPIYGADVNGTLYEKHVDEWNIGRLRTILDLVEKESGITIEGVNTPYLYFGMWKTSFAWHTEDMDLYSINYLHFGEPKSWYSVPPEHGKRLERLAKGFFPGSAQSCEAFLRHKMTLISPLMLKKYGIPFDKVTQEAGEFMITFPYGYHAGFNHGFNCAESTNFATRRWIEYGKQAVLCSCRKDMVKISMDVFVRKFQPERYKLWKAGKDNTVIDHTLPTPEAAEFLKESELPPRAGNEEECPEEDMEGVEDGEEGDLKTSLAKHRIGTKRHRVCLEIPQEVSQSELFPKEDLSSEQYEMTECPAALAPVRPTHSSVRQVEDGLTFPDYSDSTEVKFEELKNVKLEEEDEEEEQEAAALDLSVNPASVGGRLVFSGSKKKSSSSLGSGSSRDSISSDSETSEPLSCRAQGQTGVLTVHSYAKGDGRVTVGEPCTRKKGSAARSFSERELAEVADEYMFSLEENKKSKGRRQPLSKLPRHHPLVLQECVSDDETSEQLTPEEEAEETEAWAKPLSQLWQNRPPNFEAEKEFNETMAQQAPHCAVCMIFQTYHQVEFGGFNQNCGNASDLAPQKQRTKPLIPEMCFTSTGCSTDINLSTPYLEEDGTSILVSCKKCSVRVHASCYGVPPAKASEDWMCSRCSANALEEDCCLCSLRGGALQRANDDRWVHVSCAVAILEARFVNIAERSPVDVSKIPLPRFKLKCIFCKKRRKRTAGCCVQCSHGRCPTAFHVSCAQAAGVMMQPDDWPFVVFITCFRHKIPNLERAKGALQSITAGQKVISKHKNGRFYQCEVVRLTTETFYEVNFDDGSFSDNLYPEDIVSQDCLQFGPPAEGEVVQVRWTDGQVYGAKFVASHPIQMYQVEFEDGSQLVVKRDDVYTLDEELPKRVKSRLSVASDMRFNEIFTEKEVKQEKKRQRVINSRYREDYIEPALYRAIME
demethylation of peptide substrate, mass spectrometry [8]: no demethylation was observed on a di-methyl H3K9 peptide
demethylation of peptide substrate, mass spectrometry [9]: the trimethyl-K9 peptide was converted to a dimethyl-K9 peptide
